Paper PMC3985756 (Biochemistry, 2014)

Biological target: the molecule itself
Assay: crystal structure

B1: N-terminal six-His-tagged FosB from Staphylococcus aureus with a bacillithiol-Cys9 disulfide bond (enzyme)
chain: not shown
modifications: Cys9 in a disulfide bond with bacillithiol (BS-Cys9)
- stoichiometry N: 2
